Biological target: T1, 2-Quinolinylcarbonyl-L-Valinyl-L-Aspartyl (methyl ester)-L-Valinyl-L-Alanyl-L-Aspartyl (methyl ester) 2,6-difluorophenyl ester
T1 chain: VDVAD

B1: human recombinant caspase-3 (protein)
chain: SGISLDNSYKMDYPEMGLCIIINNKNFHKSTGMTSRSGTDVDAANLRETFRNLKYEVRNKNDLTREEIVELMRDVSKEDHSKRSSFVCVLLSHGEEGIIFGTNGPVDLKKITNFFRGDRCRSLTGKPKLFIIQACRGTELDCGIETDSGVDDDMACHKIPVEADFLYAYSTAPGYYSWRNSKDGSWFIQSLCAMLKQYADKLEFMHILTRVNRKVATEFESFSFDATFHAKKQIPCIVSMLTKELYFYH
B1 was tested. Which “in vitro cleavage of Ac-DEVD-AMC by the recombinant caspase” value did it give?
Its value is “no cross reactivity against other caspases”.

B2: human recombinant caspase-7 (protein)
chain: AKPDRSSFVPSLFSKKKKNVTMRSIKTTRDRVPTYQYNMNFEKLGKCIIINNKNFDKVTGMGVRNGTDKDAEALFKCFRSLGFDVIVYNDCSCAKMQDLLKKASEEDHTNAACFACILLSHGEENVIYGKDGVTPIKDLTAHFRGDRCKTLLEKPKLFFIQACRGTELDDGIQADSGPINDTDANPRYKIPVEADFLFAYSTVPGYYSWRSPGRGSWFVQALCSILEEHGKDLEIMQILTRVNDRVARHFESQSDDPHFHEKKQIPCVVSMLTKELYFSQ
How did the “in vitro cleavage of Ac-DEVD-AMC by the recombinant caspase” value turn out when B2 was run?
Its value is “no cross reactivity against other caspases”.

B3: human recombinant caspase-1 (protein)
chain: NPAMPTSSGSEGNVKLCSLEEAQRIWKQKSAEIYPIMDKSSRTRLALIICNEEFDSIPRRTGAEVDITGMTMLLQNLGYSVDVKKNLTASDMTTELEAFAHRPEHKTSDSTFLVFMSHGIREGICGKKHSEQVPDILQLNAIFNMLNTKNCPSLKDKPKVIIIQACRGDSPGVVWFKDSVGVSGNLSLPTTEEFEDDAIKKAHIEKDFIAFCSSTPDNVSWRHPTMGSVFIGRLIEHMQEYACSCDVEEIFRKVRFSFEQPDGRAQMPTTERVTLTRCFYLFPGH
B3 was tested. Which “in vitro cleavage of Ac-YVAD-AMC by the recombinant caspase” value did it give?
Its value is “no cross reactivity against other caspases”.

B4: caspase-2 in brain of ischemic rat pups (protein)
chain: GPPCLQVKPCTPEFYQAHYQLAYRLQSQPRGLALVMSNVHFTGEKDLEFRSGGDVDHTTLVTLFKLLGYNVHVLYDQTAQEMQEKLQNFAQLPAHRVTDSCIVALLSHGVEGGIYGVDGKLLQLQEVFRLFDNANCPSLQNKPKMFFIQACRGDETDRGVDQQDGKNHAQSPGCEESDAGKEELMKMRLPTRSDMICGYACLKGNAAMRNTKRGSWYIEALTQVFSERACDMHVADMLVKVNALIKEREGYAPGTEFHRCKEMSEYCSTLCQQLYLFPGYPPT
B4 was tested. Which “caspase-2 activity (VDVAD-AMC cleavage) and caspase-2 processing (western blot) in brain homogenates” value did it give?
The value was “it inhibited caspase-2 activity as well as caspase-2 processing in brain of ischemic rat pups”.

B5: human recombinant caspase-10 (protein)
chain: VKTFLEALPQESWQNKHAGSNGNRATNGAPSLVSRGMQGASANTLNSETSTKRAAVYRMNRNHRGLCVIVNNHSFTSLKDRQGTHKDAEILSHVFQWLGFTVHIHNNVTKVEMEMVLQKQKCNPAHADGDCFVFCILTHGRFGAVYSSDEALIPIREIMSHFTALQCPRLAEKPKLFFIQACQGEEIQPSVSIEADALNPEQAPTSLQDSIPAEADFLLGLATVPGYVSFRHVEEGSWYIQSLCNHLKKLVPRMLKFLEKTMEIRGRKRTVWGAKQISATSLPTAISAQTPRPPMRRWSSVS
For B5, which “in vitro cleavage of Ac-IETD-AMC by the recombinant caspase” value is on record?
The value was “no cross reactivity against other caspases”.

B6: human recombinant caspase-5 (protein)
chain: DQKITSVKPLLQIEAGPPESAESTNILKLCPREEFLRLCKKNHDEIYPIKKREDRRRLALIICNTKFDHLPARNGAHYDIVGMKRLLQGLGYTVVDEKNLTARDMESVLRAFAARPEHKSSDSTFLVLMSHGILEGICGTAHKKKKPDVLLYDTIFQIFNNRNCLSLKDKPKVIIVQACRGEKHGELWVRDSPASLALISSQSSENLEADSVCKIHEEKDFIAFCSSTPHNVSWRDRTRGSIFITELITCFQKYSCCCHLMEIFRKVQKSFEVPQAKAQMPTIERATLTRDFYLFPGN
B6 was tested. Which “in vitro cleavage of Ac-WEHD-AMC by the recombinant caspase” value did it give?
The value was “no cross reactivity against other caspases”.

B7: human recombinant caspase-9 (protein)
chain: MDEADRRLLRRCRLRLVEELQVDQLWDALLSRELFRPHMIEDIQRAGSGSRRDQARQLIIDLETRGSQALPLFISCLEDTGQDMLASFLRTNRQAAKLSKPTLENLTPVVLRPEIRKPEVLRPETPRPVDIGSGGFGDVGALESLRGNADLAYILSMEPCGHCLIINNVNFCRESGLRTRTGSNIDCEKLRRRFSSLHFMVEVKGDLTAKKMVLALLELAQQDHGALDCCVVVILSHGCQASHLQFPGAVYGTDGCPVSVEKIVNIFNGTSCPSLGGKPKLFFIQACGGEQKDHGFEVASTSPEDESPGSNPEPDATPFQEGLRTFDQLDAISSLPTPSDIFVSYSTFPGFVSWRDPKSGSWYVETLDDIFEQWAHSEDLQSLLLRVANAVSVKGIYKQMPGCFNFLRKKLFFKTS
With B7 as the protein, how does the “in vitro cleavage of Ac-LEHD-AMC by the recombinant caspase” value read?
Its value is “no cross reactivity against other caspases”.

B8: human recombinant caspase-4 (protein)
chain: QISPNKKAHPNMEAGPPESGESTDALKLCPHEEFLRLCKERAEEIYPIKERNNRTRLALIICNTEFDHLPPRNGADFDITGMKELLEGLDYSVDVEENLTARDMESALRAFATRPEHKSSDSTFLVLMSHGILEGICGTVHDEKKPDVLLYDTIFQIFNNRNCLSLKDKPKVIIVQACRGANRGELWVRDSPASLEVASSQSSENLEEDAVYKTHVEKDFIAFCSSTPHNVSWRDSTMGSIFITQLITCFQKYSWCCHLEEVFRKVQQSFETPRAKAQMPTIERLSMTRYFYLFPGN
For B8, which “in vitro cleavage of Ac-WEHD-AMC by the recombinant caspase” value is on record?
Its value is “no cross reactivity against other caspases”.

B9: human recombinant caspase-8 (protein)
chain: SESQTLDKVYQMKSKPRGYCLIINNHNFAKAREKVPKLHSIRDRNGTHLDAGALTTTFEELHFEIKPHDDCTVEQIYEILKIYQLMDHSNMDCFICCILSHGDKGIIYGTDGQEAPIYELTSQFTGLKCPSLAGKPKVFFIQACQGDNYQKGIPVETDSEEQPYLEMDLSSPQTRYIPDEADFLLGMATVNNCVSYRNPAEGTWYIQSLCQSLRERCPRGDDILTILTEVNYEVSNKDDKKNMGKQMPQPTFTLRKKLVFPSD
With B9 as the protein, how does the “in vitro cleavage of Ac-IETD-AMC by the recombinant caspase” value read?
The value was “no cross reactivity against other caspases”.

B10: human recombinant caspase-6 (protein)
chain: AFYKREMFDPAEKYKMDHRRRGIALIFNHERFFWHLTLPERRGTCADRDNLTRRFSDLGFEVKCFNDLKAEELLLKIHEVSTVSHADADCFVCVFLSHGEGNHIYAYDAKIEIQTLTGLFKGDKCHSLVGKPKIFIIQACRGNQHDVPVIPLDVVDNQTEKLDTNITEVDAASVYTLPAGADFLMCYSVAEGYYSHRETVNGSWYIQDLCEMLGKYGSSLEFTELLTLVNRKVSQRRVDFCKDPSAIGKKQVPCFASMLTKKLHFFPKSN
For B10, which “in vitro cleavage of Ac-VEID-AMC by the recombinant caspase” value is on record?
The value was “no cross reactivity against other caspases”.
